Data reported in patent publication US20240124528A1 (ACADEMIA SINICA, published 2024).
Values belong to the binder of their own block, whether it stands above or below them.

B3: IL-17RB-Flag (Flag-tagged IL-17RB, wild type) (receptor)
chain: REPTVQCGSETGPSPEWMLQHDLIPGDLRDLRVEPVTTSVATGDYSILMNVSWVLRADASIRLLKATKICVTGKSNFQSYSCVRCNYTEAFQTQTRPSGGKWTFSYIGFPVELNTVYFIGAHNIPNANMNEDGPSMSVNFTSPGCLDHIMKYKKKCVKAGSLWDPNITACKKNEETVEVNFTTTPLGNRYMALIQHSTIIGFSQVFEPHQKKQTRASVVIPVTGDSEGATVQLTPYFPTCGSDCIRHKGTVVLCPQTGVPFPLDNNKSKPGGWLPLLLLSLLVATWVLVAGIYLMWRHERIKKTSFSTTTLLPPIKVLVVYPSEICFHHTICYFTEFLQNHCRSEVILEKWQKKKIAEMGPVQWLATQKKAADKVVFLLSNDVNSVCDGTCGKSEGSPSENSQDLFPLAFNLFCSDLRSQIHLHKYVVVYFREIDTKDDYNALSVCPKYHLMKDATAFCAELLHVKQQVSAGKRSQACHDGCCSL
notes: The construct as expressed; also called Flag-IL-17RB; Flag-tagged WT IL-17RB; not shown: Flag tag
B4: IL-17RB-HA (C-terminally HA-tagged full-length IL-17RB, wild type) (receptor)
chain: REPTVQCGSETGPSPEWMLQHDLIPGDLRDLRVEPVTTSVATGDYSILMNVSWVLRADASIRLLKATKICVTGKSNFQSYSCVRCNYTEAFQTQTRPSGGKWTFSYIGFPVELNTVYFIGAHNIPNANMNEDGPSMSVNFTSPGCLDHIMKYKKKCVKAGSLWDPNITACKKNEETVEVNFTTTPLGNRYMALIQHSTIIGFSQVFEPHQKKQTRASVVIPVTGDSEGATVQLTPYFPTCGSDCIRHKGTVVLCPQTGVPFPLDNNKSKPGGWLPLLLLSLLVATWVLVAGIYLMWRHERIKKTSFSTTTLLPPIKVLVVYPSEICFHHTICYFTEFLQNHCRSEVILEKWQKKKIAEMGPVQWLATQKKAADKVVFLLSNDVNSVCDGTCGKSEGSPSENSQDLFPLAFNLFCSDLRSQIHLHKYVVVYFREIDTKDDYNALSVCPKYHLMKDATAFCAELLHVKQQVSAGKRSQACHDGCCSL
notes: Full-length IL-17RB subcloned into pcDNA3.1, expressed in 293T, IL-17RB-KO BxPC3 or SU.86.86 cells; also called HA-IL-17RB; HA-tagged WT IL-17RB; not shown: HA tag, C-terminal

Experiments:
[1] = target: T1, HA-TRIM56 (TRIM56-HA, HA-tagged tripartite-motif 56) (UniProt Q9BRZ2 1-755); experiment: reciprocal co-IP, 293T cells, rIL-17B (FIG. 6D)
T1 construct: also called HA-tagged TRIM56; HA-TIM56; not shown: HA tag of the C-HA vector
T1 sequence (looked up): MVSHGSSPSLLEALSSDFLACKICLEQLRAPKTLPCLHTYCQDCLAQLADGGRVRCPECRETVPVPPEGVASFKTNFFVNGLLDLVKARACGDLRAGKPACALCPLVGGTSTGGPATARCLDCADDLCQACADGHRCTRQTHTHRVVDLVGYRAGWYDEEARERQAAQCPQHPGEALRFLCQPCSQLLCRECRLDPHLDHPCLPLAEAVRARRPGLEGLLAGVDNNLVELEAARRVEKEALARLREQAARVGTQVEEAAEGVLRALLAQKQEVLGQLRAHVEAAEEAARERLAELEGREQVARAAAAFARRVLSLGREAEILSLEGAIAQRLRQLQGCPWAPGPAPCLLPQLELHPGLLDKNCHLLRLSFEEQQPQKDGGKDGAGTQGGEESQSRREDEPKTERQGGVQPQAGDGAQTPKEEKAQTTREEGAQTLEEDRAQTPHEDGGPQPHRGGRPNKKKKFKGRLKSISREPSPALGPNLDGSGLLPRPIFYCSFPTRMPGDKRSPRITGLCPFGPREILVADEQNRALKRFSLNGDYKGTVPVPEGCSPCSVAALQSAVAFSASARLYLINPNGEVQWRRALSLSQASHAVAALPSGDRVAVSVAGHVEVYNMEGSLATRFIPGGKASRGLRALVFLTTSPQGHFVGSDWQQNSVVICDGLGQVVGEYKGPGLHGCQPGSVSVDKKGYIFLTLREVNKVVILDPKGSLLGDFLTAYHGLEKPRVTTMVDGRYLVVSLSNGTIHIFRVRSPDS

[2] = target: B4; experiment: co-IP with anti-HA beads, 293T cells, rIL-17B (FIG. 4B)
[3] = target: B3; experiment: Duolink in situ interaction assay with anti-HA and anti-Flag, IL-17RB-KO BxPC3 cells (FIG. 4C, FIG. 13D)
[4] = target: the molecule itself; experiment: Duolink in situ interaction assay with anti-IL-17RB (D9), CFPAC1 cells, 50 ng/ml rIL-17B (FIG. 4D)
[5] = target: B4; experiment: co-IP with anti-HA beads, IL-17RB-KO BxPC3 cells, 50 ng/ml rIL-17B (FIG. 14B)
[6] = target: T1, HA-TRIM56 (TRIM56-HA, HA-tagged …); experiment: co-IP in 293T cells (FIG. 6B) and native-PAGE of mixed purified proteins (FIG. 17A)
[7] = target: T2, TRIM56 (tripartite-motif 56), endogenous (human, UniProt Q9BRZ2 1-755); experiment: co-IP with anti-Flag beads (FIG. 17F)
T2 construct: also called ubiquitin E3 ligase TRIM56
T2 sequence (looked up): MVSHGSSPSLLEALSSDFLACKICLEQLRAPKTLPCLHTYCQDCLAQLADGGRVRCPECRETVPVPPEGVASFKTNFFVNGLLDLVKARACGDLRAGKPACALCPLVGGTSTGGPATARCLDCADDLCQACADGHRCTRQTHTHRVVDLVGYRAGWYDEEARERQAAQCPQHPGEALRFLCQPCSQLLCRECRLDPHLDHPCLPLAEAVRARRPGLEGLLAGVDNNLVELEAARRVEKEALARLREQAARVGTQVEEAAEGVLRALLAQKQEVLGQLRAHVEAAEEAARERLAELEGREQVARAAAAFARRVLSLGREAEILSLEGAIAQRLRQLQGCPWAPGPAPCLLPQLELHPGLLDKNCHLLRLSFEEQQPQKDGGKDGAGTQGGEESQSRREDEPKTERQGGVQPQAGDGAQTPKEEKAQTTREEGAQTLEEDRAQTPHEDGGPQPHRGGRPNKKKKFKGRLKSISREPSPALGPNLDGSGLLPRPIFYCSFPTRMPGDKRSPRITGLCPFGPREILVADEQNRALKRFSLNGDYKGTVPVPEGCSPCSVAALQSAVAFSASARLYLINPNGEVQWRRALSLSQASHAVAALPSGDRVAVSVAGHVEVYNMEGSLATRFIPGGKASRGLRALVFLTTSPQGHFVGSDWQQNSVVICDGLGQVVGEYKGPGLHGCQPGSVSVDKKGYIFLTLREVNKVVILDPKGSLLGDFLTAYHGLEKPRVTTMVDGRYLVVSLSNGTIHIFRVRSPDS

Binder: B3
binding result [2]: binds

Binder: B4
binding result [3]: binds

B5: interleukin-17 receptor B (IL-17RB), human, endogenous in pancreatic cancer cells (receptor)
chain: REPTVQCGSETGPSPEWMLQHDLIPGDLRDLRVEPVTTSVATGDYSILMNVSWVLRADASIRLLKATKICVTGKSNFQSYSCVRCNYTEAFQTQTRPSGGKWTFSYIGFPVELNTVYFIGAHNIPNANMNEDGPSMSVNFTSPGCLDHIMKYKKKCVKAGSLWDPNITACKKNEETVEVNFTTTPLGNRYMALIQHSTIIGFSQVFEPHQKKQTRASVVIPVTGDSEGATVQLTPYFPTCGSDCIRHKGTVVLCPQTGVPFPLDNNKSKPGGWLPLLLLSLLVATWVLVAGIYLMWRHERIKKTSFSTTTLLPPIKVLVVYPSEICFHHTICYFTEFLQNHCRSEVILEKWQKKKIAEMGPVQWLATQKKAADKVVFLLSNDVNSVCDGTCGKSEGSPSENSQDLFPLAFNLFCSDLRSQIHLHKYVVVYFREIDTKDDYNALSVCPKYHLMKDATAFCAELLHVKQQVSAGKRSQACHDGCCSL
notes: Endogenous receptor of CFPAC1 / BxPC3 cells, precipitated from lysates or stained in situ; also called interleukin-17B receptor
binding result [4]: binds

B7: IL-17RB ΔN458˜V462 (Del-6), Flag-tagged (receptor)
chain: REPTVQCGSETGPSPEWMLQHDLIPGDLRDLRVEPVTTSVATGDYSILMNVSWVLRADASIRLLKATKICVTGKSNFQSYSCVRCNYTEAFQTQTRPSGGKWTFSYIGFPVELNTVYFIGAHNIPNANMNEDGPSMSVNFTSPGCLDHIMKYKKKCVKAGSLWDPNITACKKNEETVEVNFTTTPLGNRYMALIQHSTIIGFSQVFEPHQKKQTRASVVIPVTGDSEGATVQLTPYFPTCGSDCIRHKGTVVLCPQTGVPFPLDNNKSKPGGWLPLLLLSLLVATWVLVAGIYLMWRHERIKKTSFSTTTLLPPIKVLVVYPSEICFHHTICYFTEFLQNHCRSEVILEKWQKKKIAEMGPVQWLATQKKAADKVVFLLSNDVNSVCDGTCGKSEGSPSENSQDLFPLAFNLFCSDLRSQIHLHKYVVVYFREIDTKDDYCPKYHLMKDATAFCAELLHVKQQVSAGKRSQACHDGCCSL
notes: also called Del-6 (ΔN458-V462) IL-17RB; not shown: Flag tag
binding result [1]: no binding | binding result [7]: no binding (tested: 50 ng/ml rIL-17B)

The next lines start with the values.

binding result [1]: no binding
B1: IL-17RB ΔK470˜Q484 (Del-7), Flag-tagged (receptor)
chain: REPTVQCGSETGPSPEWMLQHDLIPGDLRDLRVEPVTTSVATGDYSILMNVSWVLRADASIRLLKATKICVTGKSNFQSYSCVRCNYTEAFQTQTRPSGGKWTFSYIGFPVELNTVYFIGAHNIPNANMNEDGPSMSVNFTSPGCLDHIMKYKKKCVKAGSLWDPNITACKKNEETVEVNFTTTPLGNRYMALIQHSTIIGFSQVFEPHQKKQTRASVVIPVTGDSEGATVQLTPYFPTCGSDCIRHKGTVVLCPQTGVPFPLDNNKSKPGGWLPLLLLSLLVATWVLVAGIYLMWRHERIKKTSFSTTTLLPPIKVLVVYPSEICFHHTICYFTEFLQNHCRSEVILEKWQKKKIAEMGPVQWLATQKKAADKVVFLLSNDVNSVCDGTCGKSEGSPSENSQDLFPLAFNLFCSDLRSQIHLHKYVVVYFREIDTKDDYNALSVCPKYHLMQVSAGKRSQACHDGCCSL
notes: not shown: Flag tag

binding result [1]: no binding
B2: IL-17RB ΔV403˜S416 (Del-3), Flag-tagged (receptor)
chain: REPTVQCGSETGPSPEWMLQHDLIPGDLRDLRVEPVTTSVATGDYSILMNVSWVLRADASIRLLKATKICVTGKSNFQSYSCVRCNYTEAFQTQTRPSGGKWTFSYIGFPVELNTVYFIGAHNIPNANMNEDGPSMSVNFTSPGCLDHIMKYKKKCVKAGSLWDPNITACKKNEETVEVNFTTTPLGNRYMALIQHSTIIGFSQVFEPHQKKQTRASVVIPVTGDSEGATVQLTPYFPTCGSDCIRHKGTVVLCPQTGVPFPLDNNKSKPGGWLPLLLLSLLVATWVLVAGIYLMWRHERIKKTSFSTTTLLPPIKVLVVYPSEICFHHTICYFTEFLQNHCRSEVILEKWQKKKIAEMGPVQWLATQKKAADKVVFLLSNDVNSENSQDLFPLAFNLFCSDLRSQIHLHKYVVVYFREIDTKDDYNALSVCPKYHLMKDATAFCAELLHVKQQVSAGKRSQACHDGCCSL
notes: not shown: Flag tag

binding result [5]: binds | binding result [6]: no binding
B6: IL-17RB Y447F, Flag-tagged (receptor)
chain: REPTVQCGSETGPSPEWMLQHDLIPGDLRDLRVEPVTTSVATGDYSILMNVSWVLRADASIRLLKATKICVTGKSNFQSYSCVRCNYTEAFQTQTRPSGGKWTFSYIGFPVELNTVYFIGAHNIPNANMNEDGPSMSVNFTSPGCLDHIMKYKKKCVKAGSLWDPNITACKKNEETVEVNFTTTPLGNRYMALIQHSTIIGFSQVFEPHQKKQTRASVVIPVTGDSEGATVQLTPYFPTCGSDCIRHKGTVVLCPQTGVPFPLDNNKSKPGGWLPLLLLSLLVATWVLVAGIYLMWRHERIKKTSFSTTTLLPPIKVLVVYPSEICFHHTICYFTEFLQNHCRSEVILEKWQKKKIAEMGPVQWLATQKKAADKVVFLLSNDVNSVCDGTCGKSEGSPSENSQDLFPLAFNLFCSDLRSQIHLHKYVVVFFREIDTKDDYNALSVCPKYHLMKDATAFCAELLHVKQQVSAGKRSQACHDGCCSL
notes: also called Y447F mutant of IL-17RB; not shown: Flag tag
